Experimental data published in publication PMC3155373 (2011).

Target: Green fluorescent protein (acid-denatured) (Aequorea victoria, UniProt P42212 = GFP)
Experiment: GFP refolding fluorescence kinetics (one-site fit, apparent Kd)

Binder	Kd [nM]
Protein disulfide isomerase (HuPDI) (protein) not shown	180
Protein disulfide isomerase (YPDI) (protein) PEDSAVVKLATDSFNEYIQSHDLVLAEFFAPWCGHCKNMAPEYVKAAETLVEKNITLAQIDCTENQDLCMEHNIPGFPSLKIFKNSDVNNSIDYEGPRTAEAIVQFMIKQSQPAVAVVADLPAYLANETFVTPVIVQSGKIDADFNATFYSMANKHFNDYDFVSAENADDDFKLSIYLPSAMDEPVVYNGKKADIADADVFEKWLQVEALPYFGEIDGSVFAQYVESGLPLGYLFYNDEEELEEYKPLFTELAKKNRGLMNFVSIDARKFGRHAGNLNMKEQFPLFAIHDMTEDLKYGLPQLSEEAFDELSDKIVLESKAIESLVKDFLKGDASPIVKSQEIFENQDSSVFQLVGKNHDEIVNDPKKDVLVLYYAPWCGHCKRLAPTYQELADTYANATSDVLIAKLDHTENDVRGVVIEGYPTIVLYPGGKKSESVVYQGSRSLDSLFDFIKENGHFDVDGKALYEEAQEKAAEEADADAELADEEDAIHDEL	300
